The target in the data set is T1, variant nuclease SEQ ID NO: 53 (P14R, D32R, I61R, E311R, T338G, E736G).
T1 chain: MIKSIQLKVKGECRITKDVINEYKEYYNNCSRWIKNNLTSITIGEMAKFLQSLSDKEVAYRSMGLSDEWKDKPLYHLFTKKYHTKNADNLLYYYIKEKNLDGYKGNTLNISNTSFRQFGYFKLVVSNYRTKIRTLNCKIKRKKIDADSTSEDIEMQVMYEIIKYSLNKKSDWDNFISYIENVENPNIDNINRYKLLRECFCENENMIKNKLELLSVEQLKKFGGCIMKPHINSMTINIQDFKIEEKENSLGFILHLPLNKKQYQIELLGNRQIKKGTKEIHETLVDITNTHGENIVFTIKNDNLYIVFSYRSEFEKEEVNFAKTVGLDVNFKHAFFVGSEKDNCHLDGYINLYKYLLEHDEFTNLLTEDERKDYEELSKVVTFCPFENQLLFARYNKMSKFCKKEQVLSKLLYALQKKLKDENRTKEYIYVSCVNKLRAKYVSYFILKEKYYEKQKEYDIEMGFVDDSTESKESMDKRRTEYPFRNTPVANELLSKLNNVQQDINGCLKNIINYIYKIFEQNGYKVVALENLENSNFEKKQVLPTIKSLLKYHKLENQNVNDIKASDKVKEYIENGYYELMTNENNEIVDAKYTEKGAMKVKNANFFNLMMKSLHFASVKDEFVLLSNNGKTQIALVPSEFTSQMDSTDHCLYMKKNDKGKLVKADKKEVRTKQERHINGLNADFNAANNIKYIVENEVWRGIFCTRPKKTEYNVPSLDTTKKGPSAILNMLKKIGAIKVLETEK
As to the kind of experiment: cell_activity; % indels; HEK293T; PAM 5'-ATTG-3'. The settings on record: tags: pcDNA3.1 expression.

B1: EMX1 crRNA ; EMX1 target (ssRNA ; dsDNA)
RNA: CUUGUUGUAUAUGUCCUUUUAUAGGUAUUAAACAACCCGCCGCUUCCUGAGCCAUC
DNA 1: CCGCCGCTTCCTGAGCCATC
DNA 2: GATGGCTCAGGAAGCGGCGG
As for B1, the indel frequency was 11.9 fold of WT.

The values are drawn from patent US20240035010, “COMPOSITIONS COMPRISING A VARIANT POLYPEPTIDE AND USES THEREOF” (Arbor Biotechnologies, Inc., published 2024).
